Experimental data from patent US6017743A, “Siaα 2,3, Galβ 1, 4Glc NAcα 2,8-sialyltransferase” (The Institute of Physical and Chemical Research, priority 1995, dated 2000).

Tests used:
[1] = biological target: T1, mouse Siaα 2,3Galβ 1,4GlcNAc α 2,8-sialyltransferase O3 (ST8Sia III), protein A-fused soluble enzyme, SEQ. ID. No.3 (active domain of SEQ. ID. No.1) (Mus musculus, UniProt Q64689); test: Kinetic properties of the sialyltransferase of the present invention (sialyltransfer from CMP-[14C]NeuAc to glycolipid acceptors, HPTLC/radio image analysis); format: biochemical; conditions: acceptor substrate, Table 2
T1 construct: ID; No.3 and 4, respectively; IgM signal peptide (N); made in house; host or cells: COS-7 cells (transient transfection with pcDSA-O3; secreted into the medium, adsorbed to IgG-Sepharose)
T1 sequence (Q64689 42-380): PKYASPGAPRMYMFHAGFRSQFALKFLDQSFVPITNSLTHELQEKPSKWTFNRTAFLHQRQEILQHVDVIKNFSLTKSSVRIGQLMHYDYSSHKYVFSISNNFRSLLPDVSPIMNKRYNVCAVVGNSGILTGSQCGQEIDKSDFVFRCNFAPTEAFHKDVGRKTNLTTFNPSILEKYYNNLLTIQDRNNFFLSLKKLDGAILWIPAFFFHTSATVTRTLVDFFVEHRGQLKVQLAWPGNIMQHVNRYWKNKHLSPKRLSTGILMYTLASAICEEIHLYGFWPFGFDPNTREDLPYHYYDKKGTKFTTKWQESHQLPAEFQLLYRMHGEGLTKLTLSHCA
Text: To facilitate functional analysis of the sialyltransferase of the present invention, expression plasmid pcDSA-O3 was constructed and transfected into COS-7 cells, and the protein A fused-protein containing an active domein of the sialyltransferase of the present invention (i.e. a soluble enzyme; hereinafter referred to as the fused protein of the present invention) was adsorbed to IgG-Sepharose in the medium and used as the enzyme source. The amino acid sequence of the fused protein and the gene encoding the fused protein are shown as SEQ. ID. No.3 and 4, respectively.
A truncated form of the sialyltransferase of the present invention (ST8Sia-III), lacking the first 39 amino acids of the open reading frame, was prepared by PCR amplification with 5'- and 3'-primers containing a XhoI site, respectively (5'-CATCTTCTCGAGTCCC AAGTACGCCAGCCCG-3' and 5'-[…]-3'). […]
The single insertion in the correct orientation was finally analyzed by restriction enzyme treatment and DNA sequencing. […]
For glycolipid acceptors, the incubation mixtures were applied on a C-18 column (Sep-Pak Vac, 100 mg; Waters, Milford, Mass., U.S.A.) which was washed with water. […] The radioactive materials in glycoproteins or glycolipids were visualized with a BAS2000 radio image analyzer (Fuji Film, Japan), and the radioactivity incorporated into acceptor glycoproteins was counted.

[2] = biological target: transferrin (bovine) (bovine) (UniProt Q29443)
[3] = biological target: asialo-α1-acid glycoprotein
fetuin [4] = biological target: fetuin
[5] = biological target: bovine submaxillary mucin (bovine)
fetuin [6] = biological target: fetuin; remark: listed apart in the source

With “Siaα 2,3Galβ 1,4GlcNAc β 1,4Galβ 1,4Glcβ1,1Cer [2,3-SPG]” the Km ([1]; 0.1 M sodium cacodylate pH 6.0, 37° C., CMP-[14C]NeuAc donor) was 82 µM and the Vmax [1] was 9.2 pmol/h,ml.
With “human ST8Sia I (GD3 synthase) expressed by Namalwa cells (from UniProt Q92185) (enzyme)” the sialyltransferase activity toward the acceptor (pmol/ml medium, h) (pmol/ml medium, h) [2] was less than 0.01, the sialyltransferase activity toward the acceptor (pmol/ml medium, h) (pmol/ml medium, h) (ovomucoid) was less than 0.01 and the sialyltransferase activity toward the acceptor (pmol/ml medium, h) (pmol/ml medium, h) [3] was less than 0.01. For the same substance, the sialyltransferase activity toward the acceptor (pmol/ml medium, h) (pmol/ml medium, h) (α1-acid glycoprotein) was less than 0.01, the sialyltransferase activity toward the acceptor (pmol/ml medium, h) (pmol/ml medium, h) (fetuin [4]) was less than 0.01 and the sialyltransferase activity toward the acceptor (pmol/ml medium, h) (pmol/ml medium, h) [5] was less than 0.01. It also gave a sialyltransferase activity toward the acceptor (pmol/ml medium, h) (pmol/ml medium, h) (asialofetuin) of less than 0.01.
“mouse ST8Sia II (STX) (from UniProt O35696) (enzyme)” was tested, and the sialyltransferase activity toward the acceptor (pmol/ml medium, h) (pmol/ml medium, h) [2] was 0.38, the sialyltransferase activity toward the acceptor (pmol/ml medium, h) (pmol/ml medium, h) (ovomucoid) was 1.3 and the sialyltransferase activity toward the acceptor (pmol/ml medium, h) (pmol/ml medium, h) [3] was less than 0.1. For the same substance, the sialyltransferase activity toward the acceptor (pmol/ml medium, h) (pmol/ml medium, h) (α1-acid glycoprotein) was 7.6, the sialyltransferase activity toward the acceptor (pmol/ml medium, h) (pmol/ml medium, h) (fetuin [4]) was 8 and the sialyltransferase activity toward the acceptor (pmol/ml medium, h) (pmol/ml medium, h) [5] was less than 0.1. The sialyltransferase activity toward the acceptor (pmol/ml medium, h) (pmol/ml medium, h) (asialofetuin) was less than 0.1.
“protein A-fused soluble enzyme containing an active domain of Siaα2,3Galβ1,4GlcNAc α2,8-sialyltransferase O3 (mouse ST8Sia-III)” showed a sialyltransferase activity toward the acceptor (pmol/ml medium, h) (pmol/ml medium, h) [2] of 1.3, a sialyltransferase activity toward the acceptor (pmol/ml medium, h) (pmol/ml medium, h) (ovomucoid) of 1.7 and a sialyltransferase activity toward the acceptor (pmol/ml medium, h) (pmol/ml medium, h) [3] of less than 0.1. It also gave a sialyltransferase activity toward the acceptor (pmol/ml medium, h) (pmol/ml medium, h) (α1-acid glycoprotein) of 7.8, a sialyltransferase activity toward the acceptor (pmol/ml medium, h) (pmol/ml medium, h) (fetuin [4]) of 92.1 and a sialyltransferase activity toward the acceptor (pmol/ml medium, h) (pmol/ml medium, h) [5] of less than 0.1. For the same substance, the sialyltransferase activity toward the acceptor (pmol/ml medium, h) (pmol/ml medium, h) (asialofetuin) was less than 0.1 and the Km (fetuin [6]) was 20 µM.
